Publication PMC9594044

Target: PtTamH (Pseudoalteromonas tunicata)
Assay: SEC; size exclusion chromatography of purified recombinant PtTamH after IMAC; retention volume corresponds to >200 kDa

stoichiometry N: 2
Substance: PtTamH (enzyme)
